Measurements taken from US20190062389A1 (CYTLIMIC, published 2019).

How the values were obtained:
[1] = biological target: HLA-A*02:06 molecule (product of HLA-A*02:06 gene) on RA2.6 cells (human); test: flow cytometry, RA2.6 cells, peptide dilution series, BB7.2 staining
Protocol: First, the RA2.6 cells were cultured overnight at 26° C. to accumulate the HLA-A*02:06 molecules unbound to the peptide on the cell surface. Any of peptide dilution series was added thereto for binding at 26° C. for 60 minutes.
Subsequently, the mixture was cultured at 35° C. for 4 hours, resulting in the denaturation of the empty HLA-A*02:06 molecule unbound to the peptide and the loss of its steric structure. A fluorescent labeled monoclonal antibody, BB7.2, specifically recognizing a peptide-bound HLA-A*02:06 molecule, was added thereto, which was then incubated on ice for 20 minutes to stain the cells.
(§1) Thereafter, the amount of fluorescence per cell was measured using a flow cytometer, and the dissociation constant, Kd value, was calculated using a method as published in a paper by the present inventor (Udaka et al., Immunogenetics, 51, 816-828, 2000).

[2] = biological target: T1, HLA-A*02:01 molecule (product of HLA-A*02:01 gene) on T2 cells (human); test: flow cytometry, T2 cells with added b2m, peptide dilution series, BB7.2 staining
T1 construct: MHC class I molecule on TAP-deficient T2 cells; stabilisation read with antibody BB7.2
Protocol: T2 cells and purified β2m were added to stepwise dilution series of a peptide whose binding capacity was to be measured, which was then incubated at 37° C. for 4 hours.
as §1

[3] = biological target: T2, HLA-A*24:02 molecule (product of HLA-A*24:02 gene) on C1R-A24 cells (human); test: flow cytometry, acid-stripped C1R-A24 cells with added b2m, peptide dilution series, 17A12 staining
T2 construct: MHC class I molecule emptied of peptide; the peptide under test reassembles with heavy chain and added b2m; assembly stained with antibody 17A12
Protocol: First, C1R-A24 cells were exposed to acidic conditions of pH 3.3 for 30 seconds to dissociate and remove endogenous peptides which were originally bound to the HLA-A*24:02 molecule and a light chain, β2m, which was commonly associated with HLA class I molecules. After neutralization, purified β2m was added to the C1R-A24 cells, which was then added to peptide dilution series. The mixtures were each then incubated on ice for 4 hours. The 3-molecule assembly (MHC-pep) consisting of the HLA-A*24:02 molecule, the peptide, and β2 m which had been reasociated during the incubation was stained with a fluorescent labeled monoclonal antibody, 17A12, recognizing the assembly.
Subsequently, the number of MHC-pep's per C1R-A24 cell (which is proportional to the fluorescent intensity of the above fluorescent antibody) was quantitatively measured using a fluorescent cell analyzer, FACScan (Becton, Dickinson and Company). The binding dissociation constant, Kd value, between the HLA-A*24:02 molecule and the peptide was calculated from the average fluorescent intensity per cell using a method as published in a paper (Udaka et al., Immunogenetics, 51, 816-828, 2000) by the present inventor.

Binder	Binding Experiment Data (log Kd) [1]	Binding Experiment Data (log Kd) [2]	Binding Experiment Data (log Kd) [3]
MVNELFDSL (Synthesized by Fmoc solid-phase method, purity 95% or more; the end is derived from the length of 9) [GPC3-derived peptide MVNELFDSL (SEQ ID NO: 1)]	-6.14 log Kd (concentration unit not printed)	-5.31 log Kd (concentration unit not printed)	-4.7 log Kd (concentration unit not printed)
SLQVTRIFL (Synthetic peptide; only the start position in GPC3 is printed) [GPC3-derived peptide SLQVTRIFL (SEQ ID NO: 4)]	-5.21 log Kd (concentration unit not printed)	-6.21 log Kd (concentration unit not printed)	-5.34 log Kd (concentration unit not printed)
GYICSHSPV (Synthetic peptide; only the start position in GPC3 is printed) [GPC3-derived peptide GYICSHSPV (SEQ ID NO: 6)]			-6.55 log Kd (concentration unit not printed)
ALNLGIEVI (Synthetic peptide; only the start position in GPC3 is printed) [GPC3-derived peptide ALNLGIEVI (SEQ ID NO: 7)]	-4.16 log Kd (concentration unit not printed)	-5.92 log Kd (concentration unit not printed)	-3.96 log Kd (concentration unit not printed)
LLQSASMEL (Synthetic peptide; only the start position in GPC3 is printed) [GPC3-derived peptide LLQSASMEL (SEQ ID NO: 8)]	-5.88 log Kd (concentration unit not printed)	-6.14 log Kd (concentration unit not printed)	-5.49 log Kd (concentration unit not printed)
KLTTTIGKL (Synthetic peptide; only the start position in GPC3 is printed) [GPC3-derived peptide KLTTTIGKL (SEQ ID NO: 9)]	-5.03 log Kd (concentration unit not printed)	-4.97 log Kd (concentration unit not printed)	-5.21 log Kd (concentration unit not printed)
GMIKVKNQL (Synthetic peptide; only the start position in GPC3 is printed) [GPC3-derived peptide GMIKVKNQL (SEQ ID NO: 10)]	-3.36 log Kd (concentration unit not printed)	-4.76 log Kd (concentration unit not printed)	-6.9 log Kd (concentration unit not printed)
ARLNMEQLL (Synthetic peptide; only the start position in GPC3 is printed) [GPC3-derived peptide ARLNMEQLL (SEQ ID NO: 11)]	-2.76 log Kd (concentration unit not printed)	-3.84 log Kd (concentration unit not printed)	-5.2 log Kd (concentration unit not printed)
LFDSLFPVI (Synthetic peptide; only the start position in GPC3 is printed) [GPC3-derived peptide LFDSLFPVI (SEQ ID NO: 2)]		-5.07 log Kd (concentration unit not printed)	-7.43 log Kd (concentration unit not printed)
SALDINECL (Synthetic peptide; only the start position in GPC3 is printed) [GPC3-derived peptide SALDINECL (SEQ ID NO: 3)]	-6.32 log Kd (concentration unit not printed)		
